Experimental data as given in patent US20030148956A1 (PROCTER AND GAMBLE, published 2003).
Ends that are not written are not given here.

T1: CRF2R
T1 sequence (Q13324 whole entry, species assumed, looked up): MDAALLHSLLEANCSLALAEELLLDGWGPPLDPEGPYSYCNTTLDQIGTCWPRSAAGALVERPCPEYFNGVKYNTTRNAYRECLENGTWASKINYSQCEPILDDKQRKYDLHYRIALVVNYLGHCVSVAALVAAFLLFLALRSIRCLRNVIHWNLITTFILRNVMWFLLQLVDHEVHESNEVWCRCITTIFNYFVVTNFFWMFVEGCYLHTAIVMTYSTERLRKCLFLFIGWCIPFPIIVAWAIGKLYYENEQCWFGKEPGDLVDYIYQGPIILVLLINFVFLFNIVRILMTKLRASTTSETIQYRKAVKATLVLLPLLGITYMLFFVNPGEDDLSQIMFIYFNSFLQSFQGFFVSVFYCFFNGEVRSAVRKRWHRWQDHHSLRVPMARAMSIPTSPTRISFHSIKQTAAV


Tests used:
CRF1R = experiment: cell-based or functional assay
CRF2R = biological target: T1, CRF2R; experiment: cell-based or functional assay

Row | Binder | CRF1R EC50 (CRF1R) | CRF1R Emax (CRF1R) | CRF2R EC50 (CRF2R) | CRF2R Emax (CRF2R)
1 | SQEPPISLDLPFELLREVLEMTKADQLAQQAHSNRKLLDIA-NH2 [SEQ ID NO 97] | 100 nM | 4.25% | 100 nM | 7.6%
2 | SQEPPISLDLPTELLREVLEMTKADQLAQQAHSNRKIIDIA-NH2 [SEQ ID NO 92] | 100 nM | 4.6% | 100 nM | 15.8%
3 | SQEPPISLDLTIHLLREVLEMTKADQLAQQAHSNRKLLDIA-NH2 [SEQ ID NO 87] | 100 nM | 5.3% | 100 nM | 14.7%
4 | SQEPPISLDLPLGLLREVLEMTKADQLAQQAHSNRKLLDIA-NH2 [SEQ ID NO 90] | 100 nM | 4% | 100 nM | 12.2%
5 | SQEPPISLDLPIQLLREVLEMTKADQLAQQAHSNRKLLDIA-NH2 [SEQ ID NO 100] | 100 nM | 6.25% | 100 nM | 9.85%
6 | IVLSLDVPIGLLQILLEQERQRAAREQATTNARILARV-NH2 [SEQ ID NO 111] | > 100 nM | 9% | 10.9 nM | 99%
7 | SQEPPISLDLPIGLLREVLEMTKADQLAQQAHSNRKLLDIA-NH2 [SEQ ID NO 93] | 100 nM | 5% | 100 nM | 6.4%
8 | IVLSLDVPIGLLQILLEQARARAAREQATTQARILARV-NH2 [SEQ ID NO 9] | 100 nM | 10% | 100 nM | 34%
9 | IVLSLDVPIGLLQILLEQAKARAAREQATTNARILARV-NH2 [SEQ ID NO 109] | 100 nM | – | 11.8 nM | –
10 | SQEPPISLDLTIGLLREVLEMTKADQLAQQAHSNRKLLDIA-NH2 [SEQ ID NO 86] | 100 nM | 4.6% | 100 nM | 8.1%
11 | SQEPPISLDLPLYLLREVLEMTKADQLAQQAHSNRKLLDIA-NH2 [SEQ ID NO 101] | 100 nM | 7.35% | 100 nM | 6.95%
12 | SQEPPISLDLPFQLLREVLEMTKADQLAQQAHSNRKLLDIA-NH2 [SEQ ID NO 91] | 100 nM | 4% | 100 nM | 7.1%
13 | SQEPPISLDLPFHLLREVLEMTKADQLAQQAHSNRKLLDIA-NH2 [SEQ ID NO 104] | 100 nM | 11.1% | 100 nM | 4.5%
14 | SQEPPISLDLPTYLLREVLEMTKADQLAQQAHSNRKLLDIA-NH2 [SEQ ID NO 106] | 100 nM | 4.8% | 100 nM | 6.1%
15 | IVLSLDVPIGLLQILLEQERAEAAREQATTNARILARV-NH2 [SEQ ID NO 113] | > 100 nM | 4% | 11.3 nM | 98%
16 | IVLSLDVPIGLLQILLEQTKADAAREQATTNARILARV-NH2 [SEQ ID NO 108] | > 100 nM | 3% | 79 nM | 97%
17 | SQEPPISLDLPTHLLREVLEMTKADQLAQQAHSNRKLLDIA-NH2 [SEQ ID NO 99] | 100 nM | 4.35% | 100 nM | 4.35%
18 | SQEPPISLDLTFGLLREVLEMTKADQLAQQAHSNRKLLDIA-NH2 [SEQ ID NO 88] | 100 nM | 11.2% | 100 nM | 12.6%
19 | SQEPPISLDLPLHLLREVLEMTKADQLAQQAHSNRKLLDIA-NH2 [SEQ ID NO 102] | 100 nM | 7.8% | 100 nM | 13.5%
20 | SQEPPISLDLPLQLLREVLEMTKADQLAQQAHSNRKLLDIA-NH2 [SEQ ID NO 95] | 100 nM | 5.55% | 100 nM | 8.25%
21 | IVLSLDVPIGLLQILLEQAKQRAAREQATTNARILARV-NH2 [SEQ ID NO 110] | > 100 nM | 9% | 11 nM | 100%
22 | SQEPPISLDLPTGLLREVLEMTKADQLAQQAHSNRKLLDIA-NH2 [SEQ ID NO 98] | 100 nM | 4% | 100 nM | 5.5%
23 | SQEIVLSLDVPIGLLREVLEMTKADQLAQQAHSNRKLLDIA-NH2 [SEQ ID NO 7] | 100 nM | 4% | 100 nM | 19%
24 | SQEPPISLDLPFGLLREVLEMTKADQLAQQAHSNRKLLDIA-NH2 [SEQ ID NO 103] | 100 nM | 5.75% | 100 nM | 4.85%
25 | ZGPPISIDLPFYLLRKMIEIEKQEKEKQQAANNRLLLDTI (C-terminal amide) [SEQ ID NO 85] | 11 nM | 84% | 2.34 nM | 100%
26 | SQEPPISLDLPTQLLREVLEMTKADQLAQQAHSNRKLLDIA-NH2 [SEQ ID NO 105] | 100 nM | 5.2% | 100 nM | 9.15%
27 | IVLSLDVPIGLLQILLEQAKAEAAREQATTNARILARV-NH2 [SEQ ID NO 112] | > 100 nM | 10% | 12.3 nM | 100%
28 | IVLSLDVPGPLLQILLEQTKQEAAREQATTNARILARV-NH2 [SEQ ID NO 5] | 100 nM | 9% | 100 nM | 12%
29 | SQEPPISLDLPIHLLREVLEMTKADQLAQQAHSNRKLLDIA-NH2 [SEQ ID NO 94] | 100 nM | 7.3% | 100 nM | 6.15%
30 | SQEPPISLDLPFYLLREVLEMTKADQLAQQAHSNRKLLDIA-NH2 [SEQ ID NO 96] | 100 nM | 16.3% | 100 nM | 12.5%
